# Assay results as given in article PMC7249120, “Hybrid Imaging Agents for Pretargeting Applications Based on Fusarinine C—Proof of Concept” (Molecules, 2020).
# Legend:
# [1] = assay type: physicochemical; details: pH 7.4
# Description: To determine the hydrophilicity the distribution of the ^68Ga-labeled conjugates between an organic (octanol) and aqueous (PBS) layer was assessed. Aliquots (50 µL) of the ^68Ga-labeled tracers (~5 µM) were diluted in 1 mL of octanol/PBS (1:1, v/v) and the mixture was vortexed at 1400 rpm (MS 3 basic vortexer, IKA, Staufen, Germany) for 15 min at RT. Subsequently the mixture was centrifuged for 2 min at 4500 rpm followed by measuring aliquots (50 µL) of both layers in the gamma counter (Wizard^2 3”, Perkin Elmer, Waltham, MA, USA). LogD was calculated using Microsoft Excel (n = 3, six replicates).
# [2] = system: CD20-expressing Raji cells pre-treated with Rituximab(RTX)–TCO; assay: Cell binding studies on Raji cells pre-treated with RTX-TCO or non-modified RTX; assay type: cell-based, human; parameters: concentration or dose not given beside the values; details: radioligand 30 min, 37 °C
# Description: CD20-expressing Raji cells ([…] lymphoblast-like B-lymphocyte cells) were obtained from the American Type Culture Collection (ATCC, Manassas, Virginia, USA). The cells were cultured in tissue culture flasks (Cellstar; Greiner Bio-One, Kremsmuenster, Austria) using RPMI-1640 medium with 10% (v/v) fetal bovine serum (FBS) as supplement (Invitrogen Corporation, Lofer, Austria). For cell binding studies 10 × 10^6 cells were washed twice with fresh medium, diluted with PBS to a final concentration of 1 × 10^6 cells per mL and 500 µL of cell suspension was transferred to Eppendorf tubes. Hereafter, 50 µL of RTX–TCO or non-modified RTX as negative control (both 0.5 µM) was added and the cell suspension was maintained at 37 °C under gentle shaking. After 1 h the suspension was centrifuged (2 min, 11 × 10^3 rcf), the supernatant was discarded and the cells were washed twice with 600 µL PBS and finally resuspended with 450 µL PBS. Subsequently 50 µL of the radioligand solution (22 nM) was added and the suspension was incubated for 30 min at 37 °C. After centrifugation and two washing steps with 600 µL PBS, the cells were resuspended in 500 µL PBS and transferred to polypropylene vials for gamma counter measurement followed by calculation of cell-associated activity in comparison to the total activity applied (n = 3, six replicates).
# [3] = system: TCO-alendronate pre-treated mice (bone); assay: PET/CT and optical imaging in the alendronate-TCO bone pretargeting model; assay type: in vivo, BALB/c mice; details: TCO-alendronate pre-treated mice vs alendronate alone; PET/CT 1 h p.i., OI of excised bones 24 h p.i.
# Description: For the proof of concept of pretargeting in vivo a model described by Yazdani et al. was applied, based on TCO-modified alendronate for bone targeting. For preparation of TCO–alendronate, briefly, 20 mg sodium alendronate trihydrate (Sigma Aldrich) was dissolved in 400 µL 0.1N sodium-bicarbonate solution pH 8.5. Then 0.6 mL TCO–NHS ester (Click chemistry tools, Scottsdale, AZ, USA), 20 mg/mL in DMSO, were slowly added to the solution and stirred overnight in the dark, followed by freeze drying. As a control the same preparation was prepared, replacing TCO–NHS solution by the same volume of DMSO. For injection in mice the residue was dissolved in water and adjusted to pH 7 (30 mM).
# MicroPET/CT images were acquired with an Albira PET/SPECT/CT small animal imaging system (Bruker Biospin Corporation, Woodbridge, CT, USA). […] After reconstruction, acquired data was viewed and analyzed with PMOD software (PMOD Technologies Ltd., Zurich, Switzerland).
# Near-infrared in vivo fluorescence imaging was performed with an In-Vivo MS FX PRO small animal imaging system (Bruker Biospin Corporation, Woodbridge, CT, USA) after the PET/CT investigation. […] An appropriate filter set (λex = 710 nm and λem = 790 nm) was used for acquiring the fluorescence of the IRDye800CW-conjugates ex vivo. […] Acquired images were analyzed using Bruker MI SE software (Bruker Biospin Corporation, Woodbridge, CT, USA).
# [4] = parameters: species or system BALB/c mice; details: mouse, in vivo, iv
# Description: Biodistribution studies of the FSC-based hybrid imaging agents radiolabeled with Gallium-68 were performed using healthy five-week-old female BALB/c mice (Charles River Laboratories, Sulzfeld, Germany). Animals (n = 3) were injected via lateral tail vein with 1 nmol of conjugate and a total activity of approximately 6 MBq. Mice were sacrificed by cervical dislocation 1 h p.i. followed by collection of the main organs and tissue, subsequent gamma counter measurement and calculation of the percentage of injected activity per gram tissue (% IA/g).
SMILES,logD [1],Cell binding (cell-associated activity of total activity applied) [2] [%],Bone uptake in PET/CT and optical imaging [3],Organ activities compared with SulfoCy5 and IRDye800CW counterparts [4]
C/C1=C/C(=O)N(O)CCC[C@H](NC(=O)CCOCCOCCOCCOCCOCCC(=O)NCc2ccc(-c3nncnn3)cc2)C(=O)OCC/C(C)=C\C(=O)N(O)CCC[C@H](NC(=O)CCOCCOCCOCCOCCOCCC(=O)NCc2ccc(-c3nncnn3)cc2)C(=O)OCC/C(C)=C\C(=O)N(O)CCC[C@H](NC(=O)CCCCC[N+]2=C(/C=C/C=C/C=C3/N(C)c4ccc(S(=O)(=O)O)cc4C3(C)C)C(C)(C)c3cc(S(=O)(=O)[O-])ccc32)C(=O)OCC1 [SulfoCy5-FSC-(PEG5-Tz)2],-2.29 ± 0.1,5.91 ± 1.62,–,–
C/C1=C/C(=O)N(O)CCC[C@H](NC(=O)CCOCCOCCOCCOCCOCCC(=O)NCc2ccc(-c3nncnn3)cc2)C(=O)OCC/C(C)=C\C(=O)N(O)CCC[C@H](NC(=O)CCOCCOCCOCCOCCOCCC(=O)NCc2ccc(-c3nncnn3)cc2)C(=O)OCC/C(C)=C\C(=O)N(O)CCC[C@H](NC(=O)CCCCC[N+]2=C(/C=C/C3=C(Oc4ccc(S(=O)(=O)O)cc4)C(=C/C=C4/N(CCCCS(=O)(=O)O)c5ccc(S(=O)(=O)O)cc5C4(C)C)/CCC3)C(C)(C)c3cc(S(=O)(=O)[O-])ccc32)C(=O)OCC1 [IRDye800CW-FSC-(PEG5-Tz)2],-2.46 ± 0.09,4.59 ± 1.45,high accumulation in joints and spine,–
CC(=O)N[C@H]1CCCN(O)C(=O)/C=C(/C)CCOC(=O)[C@@H](NC(=O)CCOCCOCCOCCOCCOCCC(=O)NCc2ccc(-c3nncnn3)cc2)CCCN(O)C(=O)/C=C(/C)CCOC(=O)[C@@H](NC(=O)CCCCC[N+]2=C(/C=C/C=C/C=C3/N(C)c4ccc(S(=O)(=O)O)cc4C3(C)C)C(C)(C)c3cc(S(=O)(=O)[O-])ccc32)CCCN(O)C(=O)/C=C(/C)CCOC1=O [SulfoCy5-MAFC-PEG5-Tz],-2.85 ± 0.08,3.09 ± 0.58,–,–
CC(=O)N[C@H]1CCCN(O)C(=O)/C=C(/C)CCOC(=O)[C@@H](NC(=O)CCOCCOCCOCCOCCOCCC(=O)NCc2ccc(-c3nncnn3)cc2)CCCN(O)C(=O)/C=C(/C)CCOC(=O)[C@@H](NC(=O)CCCCC[N+]2=C(/C=C/C3=CC(=C/C=C4/N(C)c5ccc(S(=O)(=O)O)cc5C4(C)C)/CCC3)C(C)(C)c3cc(S(=O)(=O)[O-])ccc32)CCCN(O)C(=O)/C=C(/C)CCOC1=O [SulfoCy7-MAFC-PEG5-Tz],-1.92 ± 0.05,4.12 ± 0.88,–,higher activities in all organs
CC(=O)N[C@H]1CCCN(O)C(=O)/C=C(/C)CCOC(=O)[C@@H](NC(=O)CCOCCOCCOCCOCCOCCC(=O)NCc2ccc(-c3nncnn3)cc2)CCCN(O)C(=O)/C=C(/C)CCOC(=O)[C@@H](NC(=O)CCCCC[N+]2=C(/C=C/C3=C(Oc4ccc(S(=O)(=O)O)cc4)C(=C/C=C4/N(CCCCS(=O)(=O)O)c5ccc(S(=O)(=O)O)cc5C4(C)C)/CCC3)C(C)(C)c3cc(S(=O)(=O)[O-])ccc32)CCCN(O)C(=O)/C=C(/C)CCOC1=O [IRDye800CW-MAFC-PEG5-Tz],-2.4 ± 0.05,2.88 ± 0.53,–,–
